Assay results taken from patent US20240301052A1 (LANOVA MEDICINES DEVELOPMENT, published 2024).
One block for each binder: values may come before it.

Assays:
human SLC34A2 [1] = molecular target: T1, human SLC34A2 (human, UniProt O95436 1-690); test: FACS, RMG-1 cells
T1 sequence (looked up): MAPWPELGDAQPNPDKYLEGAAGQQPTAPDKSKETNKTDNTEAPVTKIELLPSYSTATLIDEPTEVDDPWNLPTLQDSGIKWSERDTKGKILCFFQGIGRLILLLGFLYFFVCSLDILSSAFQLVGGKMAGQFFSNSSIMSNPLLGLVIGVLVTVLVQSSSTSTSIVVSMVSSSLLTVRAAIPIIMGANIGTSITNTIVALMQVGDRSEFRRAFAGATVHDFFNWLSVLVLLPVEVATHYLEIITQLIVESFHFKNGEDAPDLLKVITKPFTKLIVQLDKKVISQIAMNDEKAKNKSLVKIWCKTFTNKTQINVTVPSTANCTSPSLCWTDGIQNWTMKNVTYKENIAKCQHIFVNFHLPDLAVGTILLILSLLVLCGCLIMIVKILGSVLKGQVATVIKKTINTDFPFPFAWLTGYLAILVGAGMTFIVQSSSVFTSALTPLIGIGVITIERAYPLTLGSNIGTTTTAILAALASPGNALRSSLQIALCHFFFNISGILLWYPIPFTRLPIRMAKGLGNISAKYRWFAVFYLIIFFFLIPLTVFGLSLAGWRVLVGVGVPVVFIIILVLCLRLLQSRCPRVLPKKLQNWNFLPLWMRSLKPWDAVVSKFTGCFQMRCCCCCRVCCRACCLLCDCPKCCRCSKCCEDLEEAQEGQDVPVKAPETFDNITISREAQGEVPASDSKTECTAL

human SLC34A2 [2] = molecular target: T1, human SLC34A2; test: FACS, RMG-1 cells; remark: listed apart in the source
human SLC34A2 [3] = molecular target: T1, human SLC34A2; test: FACS, OVCAR3 cells
human SLC34A2 [4] = molecular target: T1, human SLC34A2; test: FACS, OVCAR3 cells; remark: listed apart in the source
human SLC34A2 [5] = molecular target: T1, human SLC34A2; test: FACS, OVCAR3 cells; remark: listed apart in the source
human SLC34A2 [6] = molecular target: T1, human SLC34A2; test: cell-based or functional assay
human SLC34A2 [7] = molecular target: T1, human SLC34A2; test: FACS, HEK293/human SLC34A2 cells
human SLC34A2 [8] = molecular target: T1, human SLC34A2; test: FACS, HEK293/human SLC34A2 cells; remark: listed apart in the source
human SLC34A2 [9] = molecular target: T1, human SLC34A2; test: FACS, HEK293/human SLC34A2 cells; remark: listed apart in the source
Rhesus SLC34A2 = molecular target: T2, Rhesus SLC34A2 (Rhesus, UniProt F7HDA3 1-690); test: FACS, HEK293/Rhesus SLC34A2 cells
T2 construct: whole, on cells
T2 sequence: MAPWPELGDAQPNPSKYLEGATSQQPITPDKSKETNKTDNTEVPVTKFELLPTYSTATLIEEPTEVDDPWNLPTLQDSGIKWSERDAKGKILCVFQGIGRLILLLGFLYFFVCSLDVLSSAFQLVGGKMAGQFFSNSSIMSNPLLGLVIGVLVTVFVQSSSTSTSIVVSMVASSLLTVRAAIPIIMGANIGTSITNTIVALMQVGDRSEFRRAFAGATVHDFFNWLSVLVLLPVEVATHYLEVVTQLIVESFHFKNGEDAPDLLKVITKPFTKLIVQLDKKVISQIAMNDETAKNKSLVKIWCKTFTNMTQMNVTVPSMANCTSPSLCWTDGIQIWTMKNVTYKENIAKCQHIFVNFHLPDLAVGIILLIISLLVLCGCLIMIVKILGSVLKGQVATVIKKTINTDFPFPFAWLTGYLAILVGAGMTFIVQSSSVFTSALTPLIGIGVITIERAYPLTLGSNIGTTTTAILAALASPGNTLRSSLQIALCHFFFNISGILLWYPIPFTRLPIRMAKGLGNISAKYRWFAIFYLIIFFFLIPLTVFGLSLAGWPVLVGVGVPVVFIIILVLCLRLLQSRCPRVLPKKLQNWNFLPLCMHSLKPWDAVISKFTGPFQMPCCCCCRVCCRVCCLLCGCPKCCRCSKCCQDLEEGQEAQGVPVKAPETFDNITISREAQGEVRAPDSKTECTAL

[10] = molecular target: Cynomolgus SLC34A2 (Cynomolgus); test: FACS, cells expressing Cynomolgus SLC34A2
human SLC34A2 [11] = molecular target: T1, human SLC34A2; test: FACS, OVCAR3 cells
human SLC34A2 [12] = molecular target: T1, human SLC34A2; test: FACS, OVCAR3 cells; remark: listed apart in the source

B1: XMT-1536 (antibody, INN chains, looked up, V domains shown)
VH: QVQLVQSGAEVVKPGASVKMSCKASGYTFTGYNIHWVKQAPGQGLEWIGAIYPGNGDTSYKQKFRGRATLTADTSTSTVYMELSSLRSEDSAVYYCARGETARATFAYWGQGTLVTVSS
VL: DIQMTQSPSSLSASVGDRVTITCSASQDIGNFLNWYQQKPGKTVKVLIYYTSSLYSGVPSRFSGSGSGTDYTLTISSLQPEDFATYYCQQYSKLPLTFGQGTKLELK
modifications: rilsodotin auristatin payload
- EC50 (human SLC34A2 [1]): 7.17 nM
- Top (human SLC34A2 [1]): 9940 MFI
- EC50 (human SLC34A2 [2]): 7.2 nM
- EC50 (human SLC34A2 [3]): 3.8 nM
- Top (human SLC34A2 [3]): 29000 MFI
- Top (MFI) (human SLC34A2 [3]): 58400 MFI
- EC50 (human SLC34A2 [4]): 2.68 nM
- Top (MFI) (human SLC34A2 [4]): 32400 MFI
- EC50 (human SLC34A2 [5]): 6.8 nM
- ADCC reporter EC50 (human SLC34A2 [6]): 0.76 nM
- ADCC reporter Top (MFI) (human SLC34A2 [6]): 127000 MFI
- ADCC-HEK293 (human SLC34A2 [6]): 0.76 nM
- ADCC-OVCAR3 (human SLC34A2 [6]): 0.25 nM
- Cytotoxic Effect - MDAH-2774 (human SLC34A2 [6]): 0.28 nM
- Cytotoxic Effect - OVCAR3 (human SLC34A2 [6]): 0.029 nM
- cytotoxicity EC50 (human SLC34A2 [6]): 0.72 nM
- cytotoxicity Inhibition % (human SLC34A2 [6]): 100%
- EC50 (human SLC34A2 [7]): 2.5 nM
- Top (MFI) (human SLC34A2 [7]): 27700 MFI
- EC50 (human SLC34A2 [8]): 4.05 nM
- Top (human SLC34A2 [8]): 34700 MFI
- EC50 (human SLC34A2 [9]): 2.68 nM
- Top (human SLC34A2 [9]): 32400 MFI
- EC50 (Rhesus SLC34A2): 2.54 nM
- Top (MFI) (Rhesus SLC34A2): 11900 MFI
- EC50 [10]: 29.3 nM
- Top (MFI) [10]: 2050 MFI

B3: 91C9F1.p1.z7 hIgG1 (antibody, V domains shown)
VH: QVQLVQSGAEVKKPGSSVKVSCKTSGFFFTEYIIHWVRQAPGQGLEWIGGIIPNNDVTNYKQNFRGRVTLTADKSTSTAYMELSSLRSEDTAVYYCARWRNAYYSAMDSWGQGTTVTVSS
VL: DIQVTQSPSSLSTSVGDRVTITCTASQDVGTAVAWYQQKPGKSPKLLIYWASTRHTGVPERFTGSGSGTDFTLTISSVQPEDVATYFCQQYRTSPLTFGVGTKVEIK
notes: humanized hIgG1
- EC50 (human SLC34A2 [11]): 1.67 nM
- Top (MFI) (human SLC34A2 [11]): 37400 MFI

B5: 63A11D5B4.p1.z9 hIgG1 (antibody, V domains shown)
VH: QVQLVQSGAEVVKPGASVKMSCKTSGYTFITYNMHWVRQAPGQGLEWIGAIYPGSGDTSYNQKFKGRVTLTADKSTSTAYMELSSLRSEDTAVYYCSISTIITTGAVDYWGQGTLVTVSS
VL: DIQMTQSPSSLSASVGDRVTITCKASQDVGTAVAWYQQKPGKVPKLLIYWTSTRHTGVPSRFSGSGSGTDFTLTISSLQPEDVATYYCQQYSRIPLTFGGGTKVEIK
notes: humanized hIgG1
- EC50 (human SLC34A2 [12]): 9.12 nM
- Top (MFI) (human SLC34A2 [12]): 26500 MFI

Next, values leading:

- EC50 (human SLC34A2 [11]): 1.77 nM
- Top (MFI) (human SLC34A2 [11]): 32100 MFI
B2: xi91C9F1 hIgG1 (antibody, V domains shown)
VH: EVQLQQSGPELVKPGTSVKISCKTSGFFFTEYIIHWVKQSHGRSLEWIGGIIPNNGVTNYKQNFRGKAALTADKSSNTAYMELRSLTSEDSAVYYCARWRNGYYSAMDSWGQGTSVTVSS
VL: DIVVTQSHKFMSTSLGDRVSITCTASQDVGTAVAWYQQKPGHSPKLLIYWASTRHTGVPERFTGSGSGTDFTLTITNVQSEDLADYFCQQYRTSPLTFGVGTKLELK
notes: chimeric, hIgG1

- EC50 (human SLC34A2 [12]): 10.5 nM
- Top (MFI) (human SLC34A2 [12]): 32100 MFI
B4: xi63A11D5B4 hIgG1 (antibody, V domains shown)
VH: QVQLQQPGAELVKPGASVKMSCRTSGYTFITYNMHWVKQTPGQGREWIGAIYPGNGDTSYNQKFKGKATLTADKSSSTAYMQLNSLTSEDSAVYYCSISTIITTGAVDYWGQGTSVTVAS
VL: DIVMTQSHKFMSTSVGDRVSITCKASQDVGTAVAWYQQKAGQSPKLLIYWTSTRHTGVPDRFTGSGSGTDFTLIIRSLQSEDLADYFCQQYSRIPLTFGSGTKLEIK
notes: chimeric, hIgG1
